From PMC10925295 (bioRxiv, 2024)

What was measured:
[1] = biological target: UbcH5B-GSlinker-ccRING3 fusion protein (UniProt Q86YT6); assay: crystal structure
SEC-MALS = biological target: the molecule itself; assay: SEC-MALS
crystal structure = biological target: the molecule itself; assay: crystal structure

UbcH5B-GSlinker-ccRING3 fusion protein (from UniProt Q86YT6 936-1006)
stoichiometry N [1]: 2

B1: ANK-RING1-3 of hMIB1 (residues 417-1006) (domain or fragment)
chain: QLLKKLFETQESGDLNEELVKAAANGDVAKVEDLLKRPDVDVNGQCAGHTAMQAASQNGHVDILKLLLKQNVDVEAEDKDGDRAVHHAAFGDEGAVIEVLHRGSADLNARNKRRQTPLHIAVNKGHLQVVKTLLDFGCHPSLQDSEGDTPLHDAISKKRDDILAVLLEAGADVTITNNNGFNALHHAALRGNPSAMRVLLSKLPRPWIVDEKKDDGYTALHLAALNNHVEVAELLVHQGNANLDIQNVNQQTALHLAVERQHTQIVRLLVRAGAKLDIQDKDGDTPLHEALRHHTLSQLRQLQDMQDVGKVDAAWEPSKNTLIMGLGTQGAEKKSAASIACFLAANGADLSIRNKKGQSPLDLCPDPNLCKALAKCHKEKVSGQVGSRSPSMISNDSETLEECMVCSDMKRDTLFGPCGHIATCSLCSPRVKKCLICKEQVQSRTKIEECVVCSDKKAAVLFQPCGHMCACENCANLMKKCVQCRAVVERRVPFIMCCGGKSSEDATDDISSGNIPVLQKDKDNTNVNADVQKLQQQLQDIKEQTMCPVCLDRLKNMIFLCGHGTCQLCGDRMSECPICRKAIERRILLY
stoichiometry N (SEC-MALS): 2

B2: ccRING3 region of human MIB1 (third RING domain and adjacent coiled coil region, residues 936-1006) (domain or fragment)
chain: KDKDNTNVNADVQKLQQQLQDIKEQTMCPVCLDRLKNMIFLCGHGTCQLCGDRMSECPICRKAIERRILLY
stoichiometry N (crystal structure): 2
